Results reported in US20240376208A1 (AFFIMED, published 2024).
Read-outs that look alike come from different tables or passages of the source.

T1: BCMA on MM.1S target cells (UniProt Q02223 1-184, limits assumed)
T1 sequence (looked up): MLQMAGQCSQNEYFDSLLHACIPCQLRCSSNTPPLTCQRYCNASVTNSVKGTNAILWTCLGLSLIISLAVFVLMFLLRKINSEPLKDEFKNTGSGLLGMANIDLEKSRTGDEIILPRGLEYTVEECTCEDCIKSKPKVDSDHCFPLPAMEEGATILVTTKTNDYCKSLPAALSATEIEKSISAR

B1: Bi-scDb-Fc_01 (bispecific antibody, human IgG1)
chain: EVQLLESGGGLVQPGGSLRLSCAASGFTFSNYDMAWVRQAPGKGLEWVSSISTRGDITSYRDSVKGRFTISRDNSKNTLYLQMNSLRAEDTAVYYCARQDYYTDYMGFAYWGQGTLVTVSSGGGGSGGGGSGGGGSAIQMTQSPSSLSASVGDRVTITCRASEDIYNGLAWYQQKPGKAPKLLIYGASSLQDGVPSRFSGSGSGTEFTLTISSLQPEDEATYYCAGPHKYPLTFGGGTKVEIKEPKSCDKTHTCPPCPAPEFEGGPSVFLFPPKPKDTLMISRTPEVTCVVVAVSHEDPEVKFNWYVDGVEVHNAKTKPREEQYNSTYRVVSVLTVLHQDWLNGKEYKCKVSNKALPAPIEKTISKAKGQPREPQVYTLPPSREEMTKNQVSLTCLVKGFYPSDIAVEWESNGQPENNYKTTPPVLDSDGSFFLYSKLTVDKSRWQQGNVFSCSVMHEALHNHYTQKSLSLSPGGGGGSGGGGSSYVLTQPSSVSVAPGQTATISCGGHNIGSKNVHWYQQRPGQSPVLVIYQDNKRPSGIPERFSGSNSGNTATLTISGTQAMDEADYYCQVWDNYSVLFGGGTKLTVLGGSGGSQVQLVQSGAEVKKPGESLKVSCKASGYTFTSYYMHWVRQAPGQGLEWMGAIEPMYGSTSYAQKFQGRVTMTRDTSTSTVYMELSSLRSEDTAVYYCARGSAYYYDFADYWGQGTLVTVSSGGSGGSGGSGGSGGSGGSSYVLTQPSSVSVAPGQTATISCGGHNIGSKNVHWYQQRPGQSPVLVIYQDNKRPSGIPERFSGSNSGNTATLTISGTQAMDEADYYCQVWDNYSVLFGGGTKLTVLGGSGGSQVQLVQSGAEVKKPGESLKVSCKASGYTFTSYYMHWVRQAPGQGLEWMGAIEPMYGSTSYAQKFQGRVTMTRDTSTSTVYMELSSLRSEDTAVYYCARGSAYYYDFADYWGQGTLVTVSS
notes: Anti-BCMA scFv - silenced Fc - anti-CD16A scDb
B2: Bi-scDb-Fc_02 (bispecific antibody, human IgG1)
chain: QVQLQESGPGLVKPSETLSLTCTVSGGSVSSGSYYWSWIRQPPGKGLEWIGYIYYSGSTNYNPSLKSRVTISVDTSKNQFSLKLSSVTAADTAVYYCARNPISIPAFDIWGQGTMVTVSSGGSGGSGGSGGSGGSGGSQPVLTQPPSVSVAPGKTARITCGGNNIGSKSVHWYQQKPGQAPVLVIYYDSDRPSGIPERFSGSNSGNTATLTISRVEAGDEADYYCQVWDTSSDHVLFGGGTKLTVLEPKSCDKTHTCPPCPAPEFEGGPSVFLFPPKPKDTLMISRTPEVTCVVVAVSHEDPEVKFNWYVDGVEVHNAKTKPREEQYNSTYRVVSVLTVLHQDWLNGKEYKCKVSNKALPAPIEKTISKAKGQPREPQVYTLPPSREEMTKNQVSLTCLVKGFYPSDIAVEWESNGQPENNYKTTPPVLDSDGSFFLYSKLTVDKSRWQQGNVFSCSVMHEALHNHYTQKSLSLSPGGGGGSGGGGSSYVLTQPSSVSVAPGQTATISCGGHNIGSKNVHWYQQRPGQSPVLVIYQDNKRPSGIPERFSGSNSGNTATLTISGTQAMDEADYYCQVWDNYSVLFGGGTKLTVLGGSGGSQVQLVQSGAEVKKPGESLKVSCKASGYTFTSYYMHWVRQAPGQGLEWMGAIEPMYGSTSYAQKFQGRVTMTRDTSTSTVYMELSSLRSEDTAVYYCARGSAYYYDFADYWGQGTLVTVSSGGSGGSGGSGGSGGSGGSSYVLTQPSSVSVAPGQTATISCGGHNIGSKNVHWYQQRPGQSPVLVIYQDNKRPSGIPERFSGSNSGNTATLTISGTQAMDEADYYCQVWDNYSVLFGGGTKLTVLGGSGGSQVQLVQSGAEVKKPGESLKVSCKASGYTFTSYYMHWVRQAPGQGLEWMGAIEPMYGSTSYAQKFQGRVTMTRDTSTSTVYMELSSLRSEDTAVYYCARGSAYYYDFADYWGQGTLVTVSS
notes: Anti-EGFR scFv - silenced Fc - anti-CD16A scDb; Four anti-CD16A and two anti-EGFR Fv domains

Columns and labels:
[1] = target: T1, BCMA on MM.1S target cells; assay: cell-based or functional assay
[2] = target: T2, biotinylated dimeric CD16A antigen (human, UniProt P08637 17-208, limits assumed, biotinylated (site not stated)); assay: ELISA, biotinylated dimeric CD16A titrated on coated construct
T2 construct: Soluble antigen; also called soluble CD16A antigen
T2 sequence (P08637 17-208 limits assumed): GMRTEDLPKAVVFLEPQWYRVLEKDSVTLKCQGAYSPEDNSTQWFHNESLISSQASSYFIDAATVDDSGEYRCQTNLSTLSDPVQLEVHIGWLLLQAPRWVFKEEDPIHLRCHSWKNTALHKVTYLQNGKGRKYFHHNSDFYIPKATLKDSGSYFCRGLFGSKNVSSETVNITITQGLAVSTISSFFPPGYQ
Description: (§1) For the capturing approach, 96-well ELISA plates (Immuno Maxisorp, Nunc) were coated overnight at 4° C. with His-tagged human EGFR or BCMA extracellular domain at concentrations of 3.0 or 0.4 μg/mL, respectively. After blocking with 3% (w/v) skimmed milk powder dissolved in phosphate buffered saline (PBS), antigen coated plates were used for capturing of different multivalent bispecific engagers at concentrations of 3-5 μg/mL in PBS containing 0.3% (w/v) skimmed milk powder. After washing three times with 300 μL per well of PBS containing 0.1% (v/v) Tween 20, plates were incubated with serial dilutions of biotinylated dimeric or monomeric CD16A antigen in PBS containing 0.3% (w/v) skimmed milk powder for 1.5 h at room temperature. After washing, plates were incubated with the detection conjugate Streptavidin HRP, 1:10,000 diluted in PBS containing 0.3% (w/v) skimmed milk powder for 1 h followed by washing and incubation with tetramethylbenzidine substrate (Seramun) for 1-2 min. Reaction was stopped by addition of 0.5 M H₂SO₄ (100 μL/well). Absorbance was measured at 450 nm using a multiwell plate reader, plotted and EC₅₀ values were determined by fitting a nonlinear regression model to sigmoidal dose-response curves (four parameters logistic fit) using GraphPad Prism software.
(§2) Concentration dependent binding of antibody constructs to coated recombinant CD16A antigen, or of soluble monomeric or dimeric CD16 antigen variants to coated or target antigen captured antibody constructs was analyzed in ELISA. Half maximal binding concentrations (EC₅₀) were determined by fitting a nonlinear regression model to sigmoidal dose-response curves (four parameters logistic fit) using GraphPad Prism software.

[3] = target: T3, biotinylated monomeric CD16A antigen (human, UniProt P08637 17-208, limits assumed, biotinylated (site not stated)); assay: ELISA, biotinylated monomeric CD16A titrated on coated construct
T3 construct: Soluble antigen; also called soluble CD16A antigen
T3 sequence (P08637 17-208 limits assumed): as above
Description: as §1, §2

[4] = target: T4, recombinant CD16A 158F fused to monomeric human Fc (human, UniProt P08637 17-208); assay: ELISA, construct titrated on coated CD16A 158F fused to monomeric human Fc
T4 construct: also called recombinant CD16 antigen variant; not shown: monomeric human Fc
T4 sequence (P08637 17-208): as the sequence (P08637 17-208 limits assumed) above
Description: To assess binding of EGFR/CD16 or BCMA/CD16 antibodies to coated antigen in ELISA, 96-well ELISA plates (Immuno Maxisorp, Nunc) were coated overnight at 4° C. with recombinant CD16 antigen variants fused to monomeric human Fc at a concentration of 1.5 μg/mL in 100 mM carbonate-bicarbonate buffer. After blocking with 3% (w/v) skimmed milk powder dissolved in phosphate buffered saline (PBS) serial dilutions of bispecific antibody constructs were incubated on the antigen coated plates for 1.5 h at room temperature. […] After washing, plates were incubated with tetramethylbenzidine substrate (Seramun) for 1-2 min. Reaction was stopped by addition of 0.5 M H₂SO₄ (100 μL/well). Absorbance was measured at 450 nm using a multiwell plate reader, plotted and EC₅₀ values were determined by fitting a nonlinear regression model to sigmoidal dose-response curves (four parameters logistic fit) using GraphPad Prism software.
as §2

[5] = target: recombinant CD16A 158V fused to monomeric human Fc (human, UniProt P08637 17-208); assay: ELISA, construct titrated on coated CD16A 158V fused to monomeric human Fc
Sequence of recombinant CD16A 158V fused to monomeric human Fc (P08637 17-208 F176V): as the sequence (P08637 17-208 limits assumed) above, with F160V counted along it

[6] = target: T2, biotinylated dimeric CD16A antigen; assay: ELISA, biotinylated dimeric CD16A titrated on construct captured by coated His-tagged human BCMA extracellular domain
Description: as §1, §2

[7] = target: T3, biotinylated monomeric CD16A antigen; assay: ELISA, biotinylated monomeric CD16A titrated on construct captured by coated His-tagged human BCMA extracellular domain
Description: as §1, §2

[8] = target: T5, EGFR on tumor target cells (MCF-7, Daudi, DK-MG, HCT-116) (UniProt P00533 25-1210, limits assumed); assay: cell-based or functional assay
[9] = target: T5, EGFR on tumor target cells (MCF-7, …); assay: cell-based or functional assay; remark: listed apart in the source
[10] = target: CD16A on primary human NK cells (human, UniProt P08637 17-254); assay: cell-based or functional assay
Sequence of CD16A on primary human NK cells (P08637 17-254 limits assumed): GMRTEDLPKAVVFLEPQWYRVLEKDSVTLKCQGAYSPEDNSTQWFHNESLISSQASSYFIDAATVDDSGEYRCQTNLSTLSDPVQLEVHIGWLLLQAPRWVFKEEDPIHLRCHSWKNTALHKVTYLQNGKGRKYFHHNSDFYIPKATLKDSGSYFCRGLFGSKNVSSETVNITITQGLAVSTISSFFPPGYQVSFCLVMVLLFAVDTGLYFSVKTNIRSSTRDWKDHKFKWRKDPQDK

[11] = target: T5, EGFR on tumor target cells (MCF-7, …); assay: cell-based or functional assay; remark: listed apart in the source
[12] = target: T2, biotinylated dimeric CD16A antigen; assay: ELISA, biotinylated dimeric CD16A titrated on construct captured by coated His-tagged human EGFR extracellular domain
Description: as §1, §2

[13] = target: T3, biotinylated monomeric CD16A antigen; assay: ELISA, biotinylated monomeric CD16A titrated on construct captured by coated His-tagged human EGFR extracellular domain
Description: as §1, §2

Binder | EC50 [pM], 4 h calcein-release cytotoxicity on BCMA+ MM.1S target cells, NK cells E:T 5:1 [1] [pM] | Emax [%], 4 h calcein-release cytotoxicity on BCMA+ MM.1S target cells, NK cells E:T 5:1 [1] [%] | EC50 [2] [nM] | EC50 [3] [nM] | EC50 [4] [nM] | EC50 [5] [nM] | EC50 [6] [nM] | EC50 [7] [nM] | EC50 [pM], 4 h calcein-release cytotoxicity on MCF-7 target cells, NK cells E:T 5:1 [8] [pM] | Emax [%], 4 h calcein-release cytotoxicity on MCF-7 target cells, NK cells E:T 5:1 [8] [%] | EC50 [pM], 4 h calcein-release cytotoxicity on Daudi target cells, NK cells E:T 5:1 [9] [pM] | Emax [%], 4 h calcein-release cytotoxicity on Daudi target cells, NK cells E:T 5:1 [9] [%] | Emax [%], 4 h calcein-release NK cell fratricide assay, E:T 1:1 [10] [%] | Emax [%], 4 h calcein-release cytotoxicity on Daudi target cells, NK cells E:T 5:1 [11] [%] | EC50 [12] [nM] | EC50 [13] [nM]
B1 | 1.1 | 51.2 | 1.14 | 3.4 | 0.24 | 0.17 | 0.64 | 1.72 | – | – | – | – | – | – | – | –
B2 | – | – | 0.97 | 3.1 | 0.13 | 0.11 | – | – | 1.9 | 32.9 | 20.5 | 32.6 | 23 | 18.4 | 0.79 | 1.74
